Laboratory results as given in paper PMC9482650, “Quantitative fragmentomics allow affinity mapping of interactomes” (Nature Communications, 2022).

Key:
Experiment in all cases: holdup assay
Parameters in all cases: key: below the threshold = too weak to quantify, mostly under pKd 3.1 to 4
Details in all cases: plain residues with an end cap or a label only (N-terminal biotin on a linker: ado-ado)
MAGI2_2, Q86UL8 = target: MAGI2_2, Q86UL8
NHERF2_2, Q15599 = target: NHERF2_2, Q15599
SIPA1L2, Q9P2F8 = target: T1, SIPA1L2, Q9P2F8
T1 sequence (Q9P2F8 945-1036, limits assumed, looked up): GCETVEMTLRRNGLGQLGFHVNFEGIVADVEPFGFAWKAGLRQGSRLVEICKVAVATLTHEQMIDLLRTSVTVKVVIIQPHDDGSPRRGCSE

MAST1, Q9Y2H9 = target: MAST1, Q9Y2H9
Sequence of MAST1, Q9Y2H9 (Q9Y2H9 962-1065): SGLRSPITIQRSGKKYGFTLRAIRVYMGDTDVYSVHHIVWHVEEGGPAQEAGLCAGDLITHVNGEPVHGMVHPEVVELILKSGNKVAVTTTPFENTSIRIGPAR

DLG3_1, Q92796 = target: T2, DLG3_1, Q92796
T2 sequence (Q92796 125-227, limits assumed, looked up): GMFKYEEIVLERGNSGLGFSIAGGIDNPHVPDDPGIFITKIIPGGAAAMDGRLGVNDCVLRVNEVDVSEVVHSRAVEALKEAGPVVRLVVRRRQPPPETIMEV

GRID2IP_2, A4D2P6 = target: GRID2IP_2, A4D2P6
Sequence of GRID2IP_2, A4D2P6 (A4D2P6 272-370): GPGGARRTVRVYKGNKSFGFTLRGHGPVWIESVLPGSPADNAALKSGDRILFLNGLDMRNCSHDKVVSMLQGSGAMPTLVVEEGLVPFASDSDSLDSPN

NHERF3_4, Q5T2W1 = target: T3, NHERF3_4, Q5T2W1
T3 sequence (Q5T2W1 373-468, limits assumed, looked up): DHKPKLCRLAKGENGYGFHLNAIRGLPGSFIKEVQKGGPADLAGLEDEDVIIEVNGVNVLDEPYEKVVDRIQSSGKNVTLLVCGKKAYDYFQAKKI

GOPC, Q9HD26 = target: GOPC, Q9HD26
DLG1_3, Q12959 = target: DLG1_3, Q12959
IL16_3, Q14005 = target: IL16_3, Q14005
Sequence of IL16_3, Q14005 (Q14005 1107-1207): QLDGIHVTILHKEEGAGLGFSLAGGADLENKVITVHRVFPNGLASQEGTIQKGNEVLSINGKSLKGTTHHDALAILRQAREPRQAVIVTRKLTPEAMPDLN

GRIP2_5, Q9C0E4 = target: GRIP2_5, Q9C0E4
Sequence of GRIP2_5, Q9C0E4 (Q9C0E4 544-642): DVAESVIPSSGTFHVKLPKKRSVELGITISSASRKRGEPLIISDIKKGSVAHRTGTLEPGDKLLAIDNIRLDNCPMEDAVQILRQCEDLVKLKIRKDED

DLG1_2, Q12959 = target: DLG1_2, Q12959
PCLO, Q9Y6V0 = target: T4, PCLO, Q9Y6V0
T4 sequence (Q9Y6V0 4491-4600, limits assumed, looked up): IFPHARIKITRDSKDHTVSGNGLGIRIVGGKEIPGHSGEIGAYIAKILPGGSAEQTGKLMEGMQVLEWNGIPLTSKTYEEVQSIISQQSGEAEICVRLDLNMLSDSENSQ

CASK, O14936 = target: CASK, O14936
Sequence of CASK, O14936 (O14936 487-570): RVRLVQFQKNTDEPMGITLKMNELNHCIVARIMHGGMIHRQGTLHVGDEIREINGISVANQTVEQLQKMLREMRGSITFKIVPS

DLG1_1, Q12959 = target: DLG1_1, Q12959
MPDZ_5, O75970 = target: T5, MPDZ_5, O75970
T5 sequence (O75970 695-796, limits assumed, looked up): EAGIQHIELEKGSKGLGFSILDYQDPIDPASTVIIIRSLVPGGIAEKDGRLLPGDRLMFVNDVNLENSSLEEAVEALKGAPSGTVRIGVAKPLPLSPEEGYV

NHERF3_1, Q5T2W1 = target: T6, NHERF3_1, Q5T2W1
T6 sequence (Q5T2W1 4-100, limits assumed, looked up): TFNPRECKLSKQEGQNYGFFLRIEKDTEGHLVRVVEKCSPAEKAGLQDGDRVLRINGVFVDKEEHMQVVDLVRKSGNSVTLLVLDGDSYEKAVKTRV

MPP6, Q9NZW5 = target: T7, MPP6, Q9NZW5
T7 sequence (Q9NZW5 125-219, limits assumed, looked up): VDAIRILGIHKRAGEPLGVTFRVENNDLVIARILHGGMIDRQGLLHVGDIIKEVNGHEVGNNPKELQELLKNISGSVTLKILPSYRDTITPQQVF

GRIP2_6, Q9C0E4 = target: GRIP2_6, Q9C0E4
Sequence of GRIP2_6, Q9C0E4 (Q9C0E4 648-740): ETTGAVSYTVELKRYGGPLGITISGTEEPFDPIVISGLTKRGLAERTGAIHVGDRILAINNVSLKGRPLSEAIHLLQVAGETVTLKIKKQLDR

PDZD2_2, O15018 = target: T8, PDZD2_2, O15018
T8 sequence (O15018 329-429, limits assumed, looked up): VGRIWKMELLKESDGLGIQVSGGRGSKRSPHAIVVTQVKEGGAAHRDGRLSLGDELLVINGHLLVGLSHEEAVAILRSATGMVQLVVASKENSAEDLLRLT

SNTA1, Q13424 = target: T9, SNTA1, Q13424
T9 sequence (Q13424 82-180, limits assumed, looked up): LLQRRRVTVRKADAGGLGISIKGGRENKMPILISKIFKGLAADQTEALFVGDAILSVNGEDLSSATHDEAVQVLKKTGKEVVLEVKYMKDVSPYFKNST

HTRA2, O43464 = target: HTRA2, O43464
Sequence of HTRA2, O43464 (O43464 355-458): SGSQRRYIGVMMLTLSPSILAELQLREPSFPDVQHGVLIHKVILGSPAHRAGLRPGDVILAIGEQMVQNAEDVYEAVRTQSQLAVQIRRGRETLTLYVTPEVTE

FRMPD2_3, Q68DX3 = target: FRMPD2_3, Q68DX3
Sequence of FRMPD2_3, Q68DX3 (Q68DX3 1073-1166): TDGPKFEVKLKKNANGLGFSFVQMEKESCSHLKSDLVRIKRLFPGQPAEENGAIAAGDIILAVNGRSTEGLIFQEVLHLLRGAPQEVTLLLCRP

LIN7A, O14910 = target: T10, LIN7A, O14910
T10 sequence (O14910 103-200, limits assumed, looked up): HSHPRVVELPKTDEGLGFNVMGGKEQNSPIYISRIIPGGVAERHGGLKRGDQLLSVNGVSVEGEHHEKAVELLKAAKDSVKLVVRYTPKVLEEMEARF

DFNB31_3, Q9P202 = target: T11, DFNB31_3, Q9P202
T11 sequence (Q9P202 811-907, limits assumed, looked up): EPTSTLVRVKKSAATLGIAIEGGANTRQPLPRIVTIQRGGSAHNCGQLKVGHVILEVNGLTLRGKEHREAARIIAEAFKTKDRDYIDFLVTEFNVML

FRMPD3, Q5JV73 = target: FRMPD3, Q5JV73
Sequence of FRMPD3, Q5JV73 (Q5JV73 12-100): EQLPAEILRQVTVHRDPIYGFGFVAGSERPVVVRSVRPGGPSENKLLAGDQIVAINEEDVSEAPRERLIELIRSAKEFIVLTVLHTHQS

GRASP, Q7Z6J2 = target: GRASP, Q7Z6J2
Sequence of GRASP, Q7Z6J2 (Q7Z6J2 96-193): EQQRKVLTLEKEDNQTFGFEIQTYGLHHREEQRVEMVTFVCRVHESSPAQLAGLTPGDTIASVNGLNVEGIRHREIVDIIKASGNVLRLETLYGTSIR

Sequence of MAGI2_2, Q86UL8 (Q86UL8 410-522): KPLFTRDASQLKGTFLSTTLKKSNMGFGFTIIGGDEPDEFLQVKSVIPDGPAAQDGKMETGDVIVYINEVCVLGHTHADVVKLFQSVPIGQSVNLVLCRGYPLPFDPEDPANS
Sequence of NHERF2_2, Q15599 (Q15599 142-238): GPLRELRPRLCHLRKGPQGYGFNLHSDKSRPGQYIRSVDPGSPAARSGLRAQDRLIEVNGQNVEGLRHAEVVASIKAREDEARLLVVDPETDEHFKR

VISSDDLTEL [CAPN6, Q9Y6Q1]
pKd (MAGI2_2, Q86UL8): below the threshold | pKd (NHERF2_2, Q15599): 4.28 | pKd (SIPA1L2, Q9P2F8): below the threshold | pKd (MAST1, Q9Y2H9): 4.99 | pKd (DLG3_1, Q92796): below the threshold | pKd (GRID2IP_2, A4D2P6): 4.34 | pKd (NHERF3_4, Q5T2W1): below the threshold | pKd (GOPC, Q9HD26): below the threshold | pKd (DLG1_3, Q12959): below the threshold | pKd (IL16_3, Q14005): below the threshold | pKd (GRIP2_5, Q9C0E4): below the threshold | pKd (DLG1_2, Q12959): below the threshold | pKd (PCLO, Q9Y6V0): below the threshold | pKd (CASK, O14936): below the threshold | pKd (DLG1_1, Q12959): below the threshold | pKd (MPDZ_5, O75970): below the threshold | pKd (NHERF3_1, Q5T2W1): 3.67 | pKd (MPP6, Q9NZW5): below the threshold | pKd (GRIP2_6, Q9C0E4): below the threshold | pKd (PDZD2_2, O15018): 4.39 | pKd (SNTA1, Q13424): below the threshold | pKd (HTRA2, O43464): below the threshold | pKd (FRMPD2_3, Q68DX3): below the threshold | pKd (LIN7A, O14910): below the threshold | pKd (DFNB31_3, Q9P202): 4 | pKd (FRMPD3, Q5JV73): 3.63 | pKd (GRASP, Q7Z6J2): 4.21

THHRKIHTRV [ZNF599, Q96NL3]
pKd (MAGI2_2, Q86UL8): 5.78 | pKd (NHERF2_2, Q15599): below the threshold | pKd (SIPA1L2, Q9P2F8): below the threshold | pKd (MAST1, Q9Y2H9): 4.48 | pKd (DLG3_1, Q92796): 4.48 | pKd (GRID2IP_2, A4D2P6): 3.8 | pKd (NHERF3_4, Q5T2W1): 3.55 | pKd (GOPC, Q9HD26): 4.67 | pKd (DLG1_3, Q12959): 4.15 | pKd (IL16_3, Q14005): below the threshold | pKd (GRIP2_5, Q9C0E4): 3.48 | pKd (DLG1_2, Q12959): 5.53 | pKd (PCLO, Q9Y6V0): below the threshold | pKd (CASK, O14936): below the threshold | pKd (DLG1_1, Q12959): 5.07 | pKd (MPDZ_5, O75970): 3.55 | pKd (NHERF3_1, Q5T2W1): 3.63 | pKd (MPP6, Q9NZW5): below the threshold | pKd (GRIP2_6, Q9C0E4): 3.86 | pKd (PDZD2_2, O15018): below the threshold | pKd (SNTA1, Q13424): 4.3 | pKd (HTRA2, O43464): below the threshold | pKd (FRMPD2_3, Q68DX3): 3.53 | pKd (LIN7A, O14910): below the threshold | pKd (DFNB31_3, Q9P202): below the threshold | pKd (FRMPD3, Q5JV73): below the threshold | pKd (GRASP, Q7Z6J2): 3.76

AKADAQESRL [PLCB2, Q00722]
pKd (MAGI2_2, Q86UL8): below the threshold | pKd (NHERF2_2, Q15599): 5.19 | pKd (SIPA1L2, Q9P2F8): below the threshold | pKd (MAST1, Q9Y2H9): 4.85 | pKd (DLG3_1, Q92796): below the threshold | pKd (GRID2IP_2, A4D2P6): 3.86 | pKd (NHERF3_4, Q5T2W1): below the threshold | pKd (GOPC, Q9HD26): 4.1 | pKd (DLG1_3, Q12959): below the threshold | pKd (IL16_3, Q14005): below the threshold | pKd (GRIP2_5, Q9C0E4): below the threshold | pKd (DLG1_2, Q12959): below the threshold | pKd (PCLO, Q9Y6V0): below the threshold | pKd (CASK, O14936): below the threshold | pKd (DLG1_1, Q12959): below the threshold | pKd (MPDZ_5, O75970): below the threshold | pKd (NHERF3_1, Q5T2W1): 5.58 | pKd (MPP6, Q9NZW5): below the threshold | pKd (GRIP2_6, Q9C0E4): below the threshold | pKd (PDZD2_2, O15018): below the threshold | pKd (SNTA1, Q13424): 4.2 | pKd (HTRA2, O43464): below the threshold | pKd (FRMPD2_3, Q68DX3): below the threshold | pKd (LIN7A, O14910): 3.65 | pKd (DFNB31_3, Q9P202): below the threshold | pKd (FRMPD3, Q5JV73): below the threshold | pKd (GRASP, Q7Z6J2): below the threshold
